The target in experiment [1] is T1, human BSG2 (basigin isoform 2) on the cell surface (human, UniProt P35613 140-385).
T1 construct: Presented on stably transfected BAF3 cells or endogenously on human tumor cell lines (HepG2, MiaPaCa-2, DoHH-2); also called hBSG2; CD147
T1 sequence: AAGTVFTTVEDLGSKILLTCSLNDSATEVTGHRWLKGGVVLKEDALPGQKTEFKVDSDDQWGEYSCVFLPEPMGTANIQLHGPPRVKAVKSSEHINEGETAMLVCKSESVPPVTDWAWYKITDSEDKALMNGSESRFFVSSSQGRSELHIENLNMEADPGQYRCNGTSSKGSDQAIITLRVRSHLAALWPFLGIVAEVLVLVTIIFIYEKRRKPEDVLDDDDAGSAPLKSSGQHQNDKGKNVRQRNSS
Briefly: cell-based ECL (MSD) binding on cells expressing human BSG2. The protocol:
Cells were plated at 25,000 cells/well in 25 μl PBS using 96 well MSD high binding plates (MSD, catalogue no. L11XB-3), and incubated at 37° C. for 1 hour. 25 μl/well of blocking solution (30% serum in PBS) was added to the plates for 30 minutes at room temperature with mild agitation. Plates were then incubated with 25 μl/well of BSG2 antibodies (10 μg/ml) diluted in assay buffer (10% serum in PBS) for 1 hour at room temperature with mild agitation, and then washed 3× with PBS. Goat anti-mouse or anti-human IgG sulfotag was added at 1 μg/ml for 1 hour with mild agitation, and plates were washed 3× with PBS. After the final wash, plates were incubated with 2×MSD surfactant-free read buffer (catalogue no. R92TD-2) and the signal was detected on a MSD SECTOR Imager 6000. Data were analyzed using Graphpad Prism software and EC₅₀ values were reported.
Select humanized variants were also tested for their functionality using ADCC and cell viability assays (described in Examples 1.6 and 1.7).

The target in experiment [2] is T1, human BSG2 (basigin isoform 2) on the …. Briefly: receptor binding assay, Eu-labeled antibody on cells expressing human BSG2. The protocol:
Cell lines expressing BSG2 were harvested and washed once in assay buffer (PBS, 0.1% BSA, 0.02% Na Azide, 10 mM EDTA) and resuspended to 5×10⁶ cells per mL. Serial 1:2 dilutions of ⁺³Eu-labeled anti-BSG2 antibody stock in assay buffer were made for final concentrations ranging from 1.6×10⁻⁸-7.7×10⁻¹² M, and a 4 mg/mL solution of unlabeled anti-BSG2 antibody was also prepared. To 96 well round bottom plates, 25 μl of ⁺³Eu-labeled antibody dilutions were added to 25 μl buffer (total counts), or 25 μl of unlabeled antibody were added to 25 μl buffer (background counts). 50 μl of cells at 2.5×10⁵ cells per well were then added to all samples, mixed gently, and incubated on ice for 1 hour. Cell bound antibody was then separated from unbound antibody by transferring 20 μL of the reaction mixture to Acrowell 96 well filter plates (Pall PN 5020), centrifuged for 5 min (2200 rpm), washed 3× with 150 μL cold assay buffer, and centrifuged for 5 min. Signal was determined by incubating samples with 150 μL/well of enhancement buffer and read using Envision. The specific counts were determined by subtracting the background counts (cells+labeled antibody+excess cold antibody) from the corresponding total counts (cells+labeled antibody) for each antibody concentration. The labeled antibody concentration versus total counts was analyzed using Graphpad Prism 4 to calculate Kd and Bmax values.

Experiment [3] shares this target. Briefly: cell-based or functional assay.
For experiment [4] the target is unchanged. Briefly: cell-based or functional assay. This is another data set of the same source.

Substitutions are numbered along the chain they refer to. Bounds are passed on as bounds.

B1: humanized 6A11-3A3 antibody h3A3-8 (VH.1/VL.1a) (antibody, V domains shown)
VH: EVQLVESGGGLVQPGGSLRLSCAASGFTFSNFWMDWVRQAPGKGLEWVGGIRLKSYNYATHYAESVKGRFTISRDDSKNTAYLQMNSLRAEDTAVYYCTRWDGAYWGQGTLVTVSS
VL: DIQMTQSPSSLSASVGDRVTITCKASQDVSTDVAWYQQKPGKSPKLLIYSASYRYTGVPSRFSGSGSGTDFTLTISSLQPEDIATYYCQQHYSTPFTFGQGTKLEIK
In experiment [1], B1 returned an EC50 of 6.9 nM.

B2: humanized 6A11-3A3 antibody h3A3-6 (VH.1a/VL.1) (antibody, IgG1, V domains shown)
VH: B1 VH with V48I, G49A, N79S, A81V, R100D
VL: B1 VL with S43A
notes: IgG1
In experiment [1], B2 had an EC50 of 2.05 nM. In experiment [2], this molecule had a Kd of 5.2 nM. Besides, in experiment [3], the “ADCC assay (EC50 ng/ml of % specific lysis), HepG2 hepatocellular” value is 16.4 ng/mL and the “Cross-linking assay (% viability, Cmax: 125 ng/ml), MiaPaCa pancreatic cells” value was determined as 47.9 % viability.

B3: humanized 6A11-3A3 antibody h3A3-5 (VH.1/VL.1) (antibody, V domains shown)
VH: B1 VH
VL: B1 VL with S43A
With B3, in experiment [1], the EC50 was above 100 nM.

B4: humanized 6A11-3A3 antibody h3A3-11 (VH.1/VL.1b) (antibody, V domains shown)
VH: B1 VH
VL: B1 VL with Q3V
As to B4, in experiment [1], the EC50 was above 100 nM.

B5: humanized 6A11-3A3 antibody h3A3-9 (VH.1a/VL.1a) (antibody, V domains shown)
VH: B1 VH with V48I, G49A, N79S, A81V, R100D
VL: B1 VL
With B5, in experiment [1], the EC50 was determined as 1.35 nM. This lies in the single-digit nanomolar range.

B6: humanized 6A11-3A3 antibody h3A3-12 (VH.1a/VL.1b) (antibody, IgG1, V domains shown)
VH: B1 VH with V48I, G49A, N79S, A81V, R100D
VL: B1 VL with Q3V
notes: IgG1
The molecule B6 came in with a half-maximal effective concentration (EC50) in experiment [1] of 0.96 nM. The same molecule yielded a Kd in experiment [2] of 2.3 nM. In experiment [3], the “ADCC assay (EC50 ng/ml of % specific lysis), HepG2 hepatocellular” value turned out to be 9.3 ng/mL and the “Cross-linking assay (% viability, Cmax: 125 ng/ml), MiaPaCa pancreatic cells” value stood at 48.8 % viability.

B7: mouse anti-human BSG2 antibody 1F4-2C1 with mouse IgG2a isotype (antibody, V domains shown)
VH: EVKLEESGGGLVQPGGSMKLSCVASGFTFSNFWMDWVRQSPEKGLEWVAEIRLKSTNYATHYAESVKGRFTISRDDSKSSVYLQMNNLRAEDTGIYYCTATSTGYWGQGTTLTVSS
VL: SIVMTQSPKILLVSAGDRVTITCKASQSVSNDVAWYQQKPGQSPKLLIYYASNRYTGVPDRFTGSGYGTDFTFTISTVQAEDLAVYFCQQDYSSPYTFGGGTKLEIK
In the case of B7, the “CDC assay (% killing at 10 µg/ml Ab), MiaPaCa-2 pancreatic cancer cells” value in experiment [4] worked out at 87 % killing.

B8: chimeric antibody 6A11-3A3 (human IgG1 constant regions) (antibody, V domains shown)
VH: EVKLEESGGGLVQPGGSMKLSCVASGFTFSNFWMDWVRQSPEKGLEWIAGIRLKSYNYATHYAESVKGRFTISRDDSKSSVYLQMNNLRAEDTGIYYCTDWDGAYWGQGTLVTVSA
VL: DIVMTQSHKFMSTSVGDRVSITCKASQDVSTDVAWYQQKPGQSPKLLIYSASYRYTGVPDRFTGSGSGTDFTFTISSVQAEDLAVYYCQQHYSTPFTFGSGTKLEIK
Turning to B8, in experiment [3], the “ADCC assay (EC50 ng/ml of % specific lysis), HepG2 hepatocellular” value came out at 12.5 ng/mL and the “Cross-linking assay (% viability, Cmax: 125 ng/ml), MiaPaCa pancreatic cells” value came to 55.5 % viability. Moreover, in experiment [4], the “ADCC assay (EC50 ng/ml of % specific lysis), HepG2 hepatocellular cancer cells” value came to 7.3 ng/mL.

What is called EC50 is the concentration needed to bring the measured effect to its halfway point. Lower therefore signals greater potency. What is called Kd is the free concentration of one partner at which half of the binding sites on the other are occupied at equilibrium, for simple one-to-one binding. Low readings indicate higher affinity, high ones lower affinity.

For the origin of these results see US20110223176A1 (AbbVie / Abbott, published 2011).
